Reference: patent publication US20240141059A1 (Bristol-Myers Squibb, published 2024)

Tests used:
human GITR on cells = biological target: T1, human GITR on cells (human, UniProt Q9Y5U5 26-241); assay: cell-based or functional assay
T1 sequence (looked up): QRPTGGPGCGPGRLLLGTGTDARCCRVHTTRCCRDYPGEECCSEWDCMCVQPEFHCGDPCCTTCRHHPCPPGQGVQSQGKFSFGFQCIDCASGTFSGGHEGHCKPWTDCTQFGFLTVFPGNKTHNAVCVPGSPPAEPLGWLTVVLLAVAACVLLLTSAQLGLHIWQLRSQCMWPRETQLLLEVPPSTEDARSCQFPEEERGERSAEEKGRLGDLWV

hCD16a-V158 = biological target: T2, hCD16a-V158 (human, UniProt P08637 17-208, limits assumed); assay: SPR, FcgR analyte on protein A captured dAb-Fc
T2 construct: also called FcgRIIIa-V158
T2 sequence (P08637 17-208 F176V limits assumed): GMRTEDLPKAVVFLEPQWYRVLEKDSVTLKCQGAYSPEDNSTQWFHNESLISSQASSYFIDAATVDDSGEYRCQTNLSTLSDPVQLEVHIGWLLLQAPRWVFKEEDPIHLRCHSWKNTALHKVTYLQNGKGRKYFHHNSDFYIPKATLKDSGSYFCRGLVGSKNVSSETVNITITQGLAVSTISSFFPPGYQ

hCD32a-R131 = biological target: T3, hCD32a-R131 (human, UniProt P12318 34-217); assay: SPR, FcgR analyte on protein A captured dAb-Fc
T3 construct: also called FcgRIIa-R131
T3 sequence (looked up): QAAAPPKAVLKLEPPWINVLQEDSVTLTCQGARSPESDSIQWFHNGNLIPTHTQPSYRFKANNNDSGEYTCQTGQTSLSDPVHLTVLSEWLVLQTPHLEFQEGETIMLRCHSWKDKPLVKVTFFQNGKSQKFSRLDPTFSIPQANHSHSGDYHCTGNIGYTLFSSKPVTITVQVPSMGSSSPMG

hCD16b-NA2 = biological target: T4, hCD16b-NA2 (human, UniProt O75015 17-200, limits assumed); assay: SPR, FcgR analyte on protein A captured dAb-Fc
T4 construct: also called FcgRIIIb-NA2
T4 sequence (O75015 17-200 N65S limits assumed): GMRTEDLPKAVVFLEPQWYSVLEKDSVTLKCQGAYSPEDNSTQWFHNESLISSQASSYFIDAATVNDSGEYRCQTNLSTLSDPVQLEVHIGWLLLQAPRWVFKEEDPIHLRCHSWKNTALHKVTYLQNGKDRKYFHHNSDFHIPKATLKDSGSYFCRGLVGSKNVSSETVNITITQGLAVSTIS

hCD32b = biological target: T5, hCD32b (human, UniProt P31994 43-217); assay: SPR, FcgR analyte on protein A captured dAb-Fc
T5 construct: also called FcgRIIb
T5 sequence (looked up): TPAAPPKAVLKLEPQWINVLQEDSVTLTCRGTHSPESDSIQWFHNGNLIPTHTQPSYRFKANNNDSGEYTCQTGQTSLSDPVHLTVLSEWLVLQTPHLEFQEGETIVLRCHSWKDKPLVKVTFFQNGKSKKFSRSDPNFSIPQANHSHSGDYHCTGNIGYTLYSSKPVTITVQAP

hCD32a-H131 = biological target: T6, hCD32a-H131 (human, UniProt P12318 34-217); assay: SPR, FcgR analyte on protein A captured dAb-Fc
T6 construct: also called FcgRIIa-H131
T6 sequence (looked up): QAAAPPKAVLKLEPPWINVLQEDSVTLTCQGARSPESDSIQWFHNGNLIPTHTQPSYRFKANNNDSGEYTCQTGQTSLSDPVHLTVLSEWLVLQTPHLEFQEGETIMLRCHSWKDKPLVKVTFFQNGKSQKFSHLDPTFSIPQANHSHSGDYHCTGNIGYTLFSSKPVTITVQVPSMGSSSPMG

[1] = biological target: T7, purified human-CD40 monomer (human, UniProt P25942 21-193, limits assumed); assay: SPR, dAb-Fc on protein A, hCD40monomer analyte; second set
T7 construct: Soluble analyte; also called hCD40monomer
T7 sequence (P25942 21-193 limits assumed): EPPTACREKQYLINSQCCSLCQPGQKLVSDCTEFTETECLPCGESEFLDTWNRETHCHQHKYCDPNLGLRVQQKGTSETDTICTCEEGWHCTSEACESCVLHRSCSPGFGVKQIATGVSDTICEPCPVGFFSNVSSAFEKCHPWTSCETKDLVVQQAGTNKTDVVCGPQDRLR

hCD40-Fc = biological target: T8, hCD40-Fc (human, UniProt P25942 21-193); assay: SPR, hCD40-Fc immobilized, dAb-Fc analyte, avidity
T8 construct: Immobilized on the sensor chip; not shown: Fc part of hCD40-Fc not described
T8 sequence (P25942 21-193): as the sequence (P25942 21-193 limits assumed) above

B1: anti-GITR-IgG2 (antibody)
heavy: QVQLVESGGGVVQPGRSLRLSCAASGFTFSSYGMHWVRQAPGKGLEWVAVIWYEGSNKYYADSVKGRFTISRDNSKNTLYLQMNSLRAEDTAVYYCARGGSMVRGDYYYGMDVWGQGTTVTVSSASTKGPSVFPLAPCSRSTSESTAALGCLVKDYFPEPVTVSWNSGALTSGVHTFPAVLQSSGLYSLSSVVTVPSSNFGTQTYTCNVDHKPSNTKVDKTVERKCCVECPPCPAPPVAGPSVFLFPPKPKDTLMISRTPEVTCVVVDVSHEDPEVQFNWYVDGVEVHNAKTKPREEQFNSTFRVVSVLTVVHQDWLNGKEYKCKVSNKGLPAPIEKTISKTKGQPREPQVYTLPPSREEMTKNQVSLTCLVKGFYPSDIAVEWESNGQPENNYKTTPPMLDSDGSFFLYSKLTVDKSRWQQGNVFSCSVMHEALHNHYTQKSLSLSPGK
light: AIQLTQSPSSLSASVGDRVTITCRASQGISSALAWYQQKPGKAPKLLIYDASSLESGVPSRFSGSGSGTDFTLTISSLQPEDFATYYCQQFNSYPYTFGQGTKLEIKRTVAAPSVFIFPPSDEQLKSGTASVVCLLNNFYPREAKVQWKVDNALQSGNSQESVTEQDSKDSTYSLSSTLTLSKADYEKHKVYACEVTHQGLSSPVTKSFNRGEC
In the case of B1, the “NFKB signaling EC50” value (human GITR on cells) is reported as ~0.01 µM.

B2: 3h56-269-IgG1.1f (Fc fusion)
chain: EVQLLESGGGLVQPGGSLRLSCAASGFTFRDYEMWWVRQAPGKGLERVSAINPQGTRTYYADSVKGRFTISRDNSKNTLYLQMNSLRAEDTAVYYCAKLPFRFSDRGQGTLVTVSSASTEPKSCDKTHTCPPCPAPEAEGAPSVFLFPPKPKDTLMISRTPEVTCVVVDVSHEDPEVKFNWYVDGVEVHNAKTKPREEQYNSTYRVVSVLTVLHQDWLNGKEYKCKVSNKALPSSIEKTISKAKGQPREPQVYTLPPSREEMTKNQVSLTCLVKGFYPSDIAVEWESNGQPENNYKTTPPVLDSDGSFFLYSKLTVDKSRWQQGNVFSCSVMHEALHNHYTQKSLSLSPGK
In the case of B2, the Kd (hCD16a-V158) is reported as > 5 µM, the Kd (hCD32a-R131) is reported as > 5 µM and the Kd (hCD16b-NA2) is reported as > 5 µM. The Kd (hCD32b) was > 5 µM and the Kd (hCD32a-H131) was > 5 µM.

B3: 3h56-269-IgG1.3f (Fc fusion)
chain: EVQLLESGGGLVQPGGSLRLSCAASGFTFRDYEMWWVRQAPGKGLERVSAINPQGTRTYYADSVKGRFTISRDNSKNTLYLQMNSLRAEDTAVYYCAKLPFRFSDRGQGTLVTVSSASTEPKSCDKTHTCPPCPAPEAEGAPSVFLFPPKPKDTLMISRTPEVTCVVVDVSHEDPEVKFNWYVDGVEVHNAKTKPREEQYNSTYRVVSVLTVLHQDWLNGKEYKCKVSNKALPAPIEKTISKAKGQPREPQVYTLPPSREEMTKNQVSLTCLVKGFYPSDIAVEWESNGQPENNYKTTPPVLDSDGSFFLYSKLTVDKSRWQQGNVFSCSVMHEALHNHYTQKSLSLSPGK
notes: dAb-Fc fusion protein
Binder B3 has a Kd [1] of 0.0098 µM, a koff [1] of 0.00011 s⁻¹ and a kon [1] of 11000 M⁻¹ s⁻¹. The KDapparent (hCD40-Fc) was < 1 nM.
